Laboratory results reported in article PMC13507242.
pKd: −log10 of the molar value.

Tests used:
[1] = molecular target: CD33^M ectodomain (CD33 ECD), residues 21-232, glycosylated (human); experiment: AUC; sedimentation velocity (0.4 mg/ml, 40,000 rpm) and sedimentation equilibrium (0.2, 0.1, 0.05 mg/ml, 16,000 or 20,000 rpm), 20 °C, 20 mM HEPES, 200 mM NaCl, pH 7.5; dimer to monomers
[2] = molecular target: CD33^M ectodomain (CD33^M ECD), residues 21-232, Endo Hf-deglycosylated (human); experiment: BLI; Octet RED384, 30 °C, 20 mM HEPES, 200 mM NaCl, 1 mg/mL casein, pH 7.5; Ni-NTA biosensors loaded with His6 deglycosylated CD33^M ECD WT or R119A; CLU 0.0025-5 µM; steady state (895-900 s), Hill equation; avidity
[3] = molecular target: HA-tagged CD33^M (full-length major isoform) expressed in HEK293 / HEK293T cells (human); experiment: co-IP; HEK293 / HEK293T cells expressing HA-tagged CD33 incubated with CLU (30 nM in the methods, 60 nM in the results), washed, lysed in 1% CHAPSO/TBS; IP with anti-HA, blot for CLU
Chain of HA-tagged CD33^M (full-length major isoform) expressed in HEK293 / HEK293T cells (human) (P20138 18-364): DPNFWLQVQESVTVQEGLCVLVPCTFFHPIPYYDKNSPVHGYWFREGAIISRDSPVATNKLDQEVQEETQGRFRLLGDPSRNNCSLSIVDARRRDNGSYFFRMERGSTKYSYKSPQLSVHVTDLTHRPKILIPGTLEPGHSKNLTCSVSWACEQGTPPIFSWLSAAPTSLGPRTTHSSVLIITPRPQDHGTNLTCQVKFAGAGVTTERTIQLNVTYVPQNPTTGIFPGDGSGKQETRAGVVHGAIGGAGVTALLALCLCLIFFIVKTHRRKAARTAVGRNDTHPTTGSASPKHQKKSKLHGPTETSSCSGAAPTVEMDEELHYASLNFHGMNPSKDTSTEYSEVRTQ

[4] = molecular target: endogenous CD33^M of human U937 monocytic cells (human (endogenous in U937))
Chain of endogenous CD33^M of human U937 monocytic cells (human (endogenous in U937)) (P20138 18-364): as above

[5] = molecular target: endogenous CD33^M of human U937 monocytic cells (human (endogenous in U937)); experiment: co-IP; U937 cells (endogenous CD33) exposed to CLU (60 nM), desCLU, rCLU or CLU + Aβ; CD33 immunoprecipitated from lysates, blot for CLU
[6] = molecular target: CD33^M ectodomain (CD33^M ECD), residues 21-232, Endo Hf-deglycosylated (human); experiment: SEC-MALS; Superdex 75 10/300 GL, 20 mM HEPES, 200 mM NaCl, pH 7.5; loaded at 100 and 20 µM (<10 and 2 µM on the column); dimer to monomers
[7] = molecular target: CD33^M ectodomain (CD33^M ECD), residues 21-232, Endo Hf-deglycosylated (human); experiment: AUC; sedimentation velocity (0.4 mg/ml, 40,000 rpm) and sedimentation equilibrium (0.2, 0.1, 0.05 mg/ml, 16,000 or 20,000 rpm), 20 °C, 20 mM HEPES, 200 mM NaCl, pH 7.5; dimer to monomers
[8] = molecular target: CD33^M ectodomain (CD33^M ECD), residues 21-232, Endo Hf-deglycosylated (human); experiment: BLI; Octet RED384, 30 °C, 20 mM HEPES, 200 mM NaCl, 1 mg/mL casein, pH 7.5; Ni-NTA biosensors loaded with His6 deglycosylated CD33^M ECD WT or R119A; CLU 0.0025-5 µM; steady state (895-900 s), Hill equation; avidity; remark: listed apart in the source
[9] = molecular target: CD33^M ectodomain (CD33^M ECD), residues 21-232, Endo Hf-deglycosylated (human); experiment: MST; Monolith NT.115, 23 °C, deglycosylated CD33 ECD labelled with Alexa Fluor 647; 20 mM HEPES pH 7.5, 150 mM NaCl, 0.05% Tween-20

CD33^M ectodomain (CD33 ECD), residues 21-232, glycosylated (domain or fragment)
pKd [1]: 6.52

CLU + Aβ1-42 oligomers (CLU/Aβ 1-42 mixture) (from UniProt P10909 23-227; P10909 228-449; P05067 672-713) (complex)
pKd [2]: 7.55
CD33-bound CLU in the co-IP (panel d) [3]: 1.38
CD33 ITIM tyrosine phosphorylation (CD33^M-pTyr) in U937 cells, relative to no treatment (relative to no treatment (1.00)) [4]: 11.9
CD33-bound CLU in the co-IP (panel e) [5]: 1.06

CD33^M ectodomain (CD33^M ECD), residues 21-232, Endo Hf-deglycosylated (domain or fragment)
pKd [6]: 7.00
stoichiometry N [6]: 2
pKd [7]: 6.15

native sialylated clusterin (CLU) purified from human plasma (from UniProt P10909 23-227; P10909 228-449) (ligand)
pKd [8]: 7.54
pKd [9]: 7.26
pKd [2]: 7.55
CD33-bound CLU in the co-IP (panel d) [3]: 1.15
ratio of co-precipitated CLU to CD33 band intensities [3]: 0.85 arb. units
ratio of co-precipitated CLU to CD33 band intensities (panel c) [3]: 0.425 arb. units
ratio of co-precipitated CLU to CD33 band intensities, cells expressing CD33^M + CD33^m [3]: 0.45 arb. units
CD33 ITIM tyrosine phosphorylation (CD33^M-pTyr) in U937 cells, relative to no treatment (relative to no treatment (1.00)) [4]: 6.28
CD33-bound CLU in the co-IP (panel e) [5]: 1.04
ratio of CLU to CD33 band intensities [5]: 1.23 arb. units
